These are literature values, as cited in PMC5979445.

This data set deals with Calmodulin (UniProt P0DP23).

A word on the Kd: it is the equilibrium constant for the complex coming apart. With “TRPV1 CaM binding domain (from UniProt Q8NER1)”, the Kd was 54 nM.
